12 molecules from patent publication US20220048967A1 (published 2022) can be followed below.

Positions count from the first letter of the chain named. Numbered stars: 1 amine (or outer) side, 2 acyl side, 3 side chain; on linkers, the order of the positions; unused ones are H or OH. Square brackets hold non-standard residues; d marks the D form. Side chains are listed from the residue outwards. Ends that are not written are not given here. * marks the point of attachment. C20 diacid = O=C(O)CCCCCCCCCCCCCCCCCCC(=O)*; γGlu = O=C(O)[C@H](CCC(=O)[*:2])N[*:1]; AEEA = NCCOCCOCC(=O)O; Aib = CC(C)(N)C(=O)O

In experiment [1] the target is T1, human GIP receptor (human, UniProt P48546 22-466).
T1 sequence (looked up): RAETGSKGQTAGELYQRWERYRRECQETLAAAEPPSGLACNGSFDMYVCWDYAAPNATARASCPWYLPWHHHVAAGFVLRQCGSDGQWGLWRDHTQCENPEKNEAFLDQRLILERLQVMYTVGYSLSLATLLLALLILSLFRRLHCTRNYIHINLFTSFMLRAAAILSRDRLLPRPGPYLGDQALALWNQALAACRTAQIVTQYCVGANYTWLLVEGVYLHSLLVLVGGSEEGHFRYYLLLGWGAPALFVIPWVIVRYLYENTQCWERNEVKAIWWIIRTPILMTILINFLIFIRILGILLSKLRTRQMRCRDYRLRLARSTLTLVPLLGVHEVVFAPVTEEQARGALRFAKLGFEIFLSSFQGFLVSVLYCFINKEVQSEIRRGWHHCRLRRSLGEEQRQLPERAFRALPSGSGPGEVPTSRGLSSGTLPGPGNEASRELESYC
The experiment is described as follows: cell-based or functional assay.

Experiment [2] addresses human GLP-1 receptor (human, UniProt P43220 24-463). Description: cell-based or functional assay.

B1: Example 73 (peptide)
peptide: Y[Aib]EGTFTSDYSILLDKIAQ[Aib]AFIEYLIK([AEEA-AEEA-γGlu-C20 diacid])GG-NH2
modifications: N-terminus assumed
SMILES: CC[C@H](C)[C@H](NC(=O)[C@H](CCCCN)NC(=O)[C@H](CC(=O)O)NC(=O)[C@H](CC(C)C)NC(=O)[C@H](CC(C)C)NC(=O)[C@@H](NC(=O)[C@H](CO)NC(=O)[C@H](Cc1ccc(O)cc1)NC(=O)[C@H](CC(=O)O)NC(=O)[C@H](CO)NC(=O)[C@@H](NC(=O)[C@H](Cc1ccccc1)NC(=O)[C@@H](NC(=O)CNC(=O)[C@H](CCC(=O)O)NC(=O)C(C)(C)NC(=O)[C@@H](N)Cc1ccc(O)cc1)[C@@H](C)O)[C@@H](C)O)[C@@H](C)CC)C(=O)N[C@@H](C)C(=O)N[C@@H](CCC(N)=O)C(=O)NC(C)(C)C(=O)N[C@@H](C)C(=O)N[C@@H](Cc1ccccc1)C(=O)N[C@H](C(=O)N[C@@H](CCC(=O)O)C(=O)N[C@@H](Cc1ccc(O)cc1)C(=O)N[C@@H](CC(C)C)C(=O)N[C@H](C(=O)N[C@@H](CCCCNC(=O)COCCOCCNC(=O)COCCOCCNC(=O)CC[C@H](NC(=O)CCCCCCCCCCCCCCCCCCC(=O)O)C(=O)O)C(=O)NCC(=O)NCC(N)=O)[C@@H](C)CC)[C@@H](C)CC
In the case of B1, in experiment [1], the “hGIPR cAMP EC50 ratio” value came out at 0.174 and the “hGIPR cAMP Rel EC50” value stood at 0.979 nM. In experiment [2], the “hGLP1R cAMP EC50 ratio” value was 0.0225 and the “hGLP1R cAMP Rel EC50” value was 2.55 nM.

B2: Example 72 (peptide)
peptide: Y[Aib]EGTFTSDYSILLDKIAQ[Aib]K([AEEA-AEEA-γGlu-C20 diacid])FIEYLIEGG-NH2
modifications: N-terminus assumed
SMILES: CC[C@H](C)[C@H](NC(=O)[C@H](CCCCN)NC(=O)[C@H](CC(=O)O)NC(=O)[C@H](CC(C)C)NC(=O)[C@H](CC(C)C)NC(=O)[C@@H](NC(=O)[C@H](CO)NC(=O)[C@H](Cc1ccc(O)cc1)NC(=O)[C@H](CC(=O)O)NC(=O)[C@H](CO)NC(=O)[C@@H](NC(=O)[C@H](Cc1ccccc1)NC(=O)[C@@H](NC(=O)CNC(=O)[C@H](CCC(=O)O)NC(=O)C(C)(C)NC(=O)[C@@H](N)Cc1ccc(O)cc1)[C@@H](C)O)[C@@H](C)O)[C@@H](C)CC)C(=O)N[C@@H](C)C(=O)N[C@@H](CCC(N)=O)C(=O)NC(C)(C)C(=O)N[C@@H](CCCCNC(=O)COCCOCCNC(=O)COCCOCCNC(=O)CC[C@H](NC(=O)CCCCCCCCCCCCCCCCCCC(=O)O)C(=O)O)C(=O)N[C@@H](Cc1ccccc1)C(=O)N[C@H](C(=O)N[C@@H](CCC(=O)O)C(=O)N[C@@H](Cc1ccc(O)cc1)C(=O)N[C@@H](CC(C)C)C(=O)N[C@H](C(=O)N[C@@H](CCC(=O)O)C(=O)NCC(=O)NCC(N)=O)[C@@H](C)CC)[C@@H](C)CC
In the case of B2, in experiment [1], the “hGIPR cAMP EC50 ratio” value amounted to 0.715 and the “hGIPR cAMP Rel EC50” value is 0.252 nM. In addition, in experiment [2], the “hGLP1R cAMP EC50 ratio” value stood at 0.0645 and the “hGLP1R cAMP Rel EC50” value is 0.906 nM.

B3: Example 4 (peptide)
peptide: YXEGTXTSDXSIXLDXKAQXEFIXXLIEGGPSSGAPPPS
modifications: Aib2; αMeF(2F)6; 4Pal10; αMeL13; Orn16; K17((2-[2-(2-Amino-ethoxy)-ethoxy]-acetyl)2-(γ-Glu)-CO-(CH2)16-CO2H); Aib20; D-Glu24; αMeY25; C-terminal NH2
On to B3, for which, in experiment [1], the “hGIPR cAMP EC50 ratio” value worked out at 5.95 and the “hGIPR cAMP Rel EC50” value was 0.0272 nM. Besides, in experiment [2], the “hGLP1R cAMP EC50 ratio” value is 1.41 and the “hGLP1R cAMP Rel EC50” value stood at 0.0297 nM.

B4: Example 77 (peptide)
peptide: Y[Aib]EGTFTSDYSILLKIAQ[Aib]AFIEYLIEGGPSSGAPPK([AEEA-AEEA-γGlu-C20 diacid])S-NH2
modifications: N-terminus assumed
SMILES: CC[C@H](C)[C@H](NC(=O)[C@H](CCCCN)NC(=O)[C@H](CC(C)C)NC(=O)[C@H](CC(C)C)NC(=O)[C@@H](NC(=O)[C@H](CO)NC(=O)[C@H](Cc1ccc(O)cc1)NC(=O)[C@H](CC(=O)O)NC(=O)[C@H](CO)NC(=O)[C@@H](NC(=O)[C@H](Cc1ccccc1)NC(=O)[C@@H](NC(=O)CNC(=O)[C@H](CCC(=O)O)NC(=O)C(C)(C)NC(=O)[C@@H](N)Cc1ccc(O)cc1)[C@@H](C)O)[C@@H](C)O)[C@@H](C)CC)C(=O)N[C@@H](C)C(=O)N[C@@H](CCC(N)=O)C(=O)NC(C)(C)C(=O)N[C@@H](C)C(=O)N[C@@H](Cc1ccccc1)C(=O)N[C@H](C(=O)N[C@@H](CCC(=O)O)C(=O)N[C@@H](Cc1ccc(O)cc1)C(=O)N[C@@H](CC(C)C)C(=O)N[C@H](C(=O)N[C@@H](CCC(=O)O)C(=O)NCC(=O)NCC(=O)N1CCC[C@H]1C(=O)N[C@@H](CO)C(=O)N[C@@H](CO)C(=O)NCC(=O)N[C@@H](C)C(=O)N1CCC[C@H]1C(=O)N1CCC[C@H]1C(=O)N[C@@H](CCCCNC(=O)COCCOCCNC(=O)COCCOCCNC(=O)CC[C@H](NC(=O)CCCCCCCCCCCCCCCCCCC(=O)O)C(=O)O)C(=O)N[C@@H](CO)C(N)=O)[C@@H](C)CC)[C@@H](C)CC
B4: in experiment [1], the “hGIPR cAMP EC50 ratio” value was 0.00102 and the “hGIPR cAMP Rel EC50” value is 135 nM. Moreover, in experiment [2], the “hGLP1R cAMP EC50 ratio” value was under 3.25e-05 and the “hGLP1R cAMP Rel EC50” value is over 2000 nM.

B5: Example 74 (peptide)
peptide: YXEGTFTSDYSIXLDKKAQXAXIEYLIEGGPSSGAPPPS
modifications: not fully specified; Aib2; αMeF13 as printed (likely αMeL13); K17((2-[2-(2-Amino-ethoxy)-ethoxy]-acetyl)2-(γ-Glu)-CO-(CH2)18-CO2H); Aib20; αMeF22; C-terminal NH2
Regarding B5, in experiment [1], the “hGIPR cAMP EC50 ratio” value came out at 1.7 and the “hGIPR cAMP Rel EC50” value was 0.0866 nM. For the same molecule, in experiment [2], the “hGLP1R cAMP EC50 ratio” value was 0.115 and the “hGLP1R cAMP Rel EC50” value amounted to 0.467 nM.

B6: Example 75 (peptide)
peptide: B5 peptide with X22F, L26X
modifications: not fully specified; Aib2; αMeF13 as printed (likely αMeL13); K17((2-[2-(2-Amino-ethoxy)-ethoxy]-acetyl)2-(γ-Glu)-CO-(CH2)18-CO2H); Aib20; αMeF26 as printed (likely αMeL26); C-terminal NH2
Regarding B6, in experiment [1], the “hGIPR cAMP EC50 ratio” value amounted to 0.69 and the “hGIPR cAMP Rel EC50” value is 0.214 nM. In addition, in experiment [2], the “hGLP1R cAMP EC50 ratio” value turned out to be 0.0359 and the “hGLP1R cAMP Rel EC50” value stood at 1.49 nM.

B7: Example 76 (peptide)
peptide: B5 peptide with F6X
modifications: not fully specified; Aib2; αMeF6; αMeF13 as printed (likely αMeL13); K17((2-[2-(2-Amino-ethoxy)-ethoxy]-acetyl)2-(γ-Glu)-CO-(CH2)18-CO2H); Aib20; αMeF22; C-terminal NH2
B7: in experiment [1], the “hGIPR cAMP EC50 ratio” value was found to be 1.24 and the “hGIPR cAMP Rel EC50” value was determined as 0.124 nM. In experiment [2], the “hGLP1R cAMP EC50 ratio” value is 0.63 and the “hGLP1R cAMP Rel EC50” value came out at 0.125 nM.

B8: Example 79 (peptide)
peptide: B5 peptide with Y1X, X2A, X13L, X22F
modifications: N-terminal Ac; D-Tyr1; K17((2-[2-(2-Amino-ethoxy)-ethoxy]-acetyl)2-(γ-Glu)-CO-(CH2)18-CO2H); Aib20; C-terminal NH2
As to B8, in experiment [1], the “hGIPR cAMP EC50 ratio” value was 2.11 and the “hGIPR cAMP Rel EC50” value was 0.0732 nM. For the same molecule, in experiment [2], the “hGLP1R cAMP EC50 ratio” value amounted to 0.041 and the “hGLP1R cAMP Rel EC50” value worked out at 2.02 nM.

B9: Example 82 (peptide)
peptide: B5 peptide with I12X, X13L, X22F
modifications: Aib2; D-Ile12; K17((2-[2-(2-Amino-ethoxy)-ethoxy]-acetyl)2-(γ-Glu)-CO-(CH2)18-CO2H); Aib20; C-terminal NH2
Turning to B9, in experiment [1], the “hGIPR cAMP EC50 ratio” value is 0.00679 and the “hGIPR cAMP Rel EC50” value came to 24.3 nM. Also, in experiment [2], the “hGLP1R cAMP EC50 ratio” value came to 0.00325 and the “hGLP1R cAMP Rel EC50” value came to 26.1 nM.

B10: Example 83 (peptide)
peptide: B5 peptide with X13L, X22F, E28X
modifications: Aib2; K17((2-[2-(2-Amino-ethoxy)-ethoxy]-acetyl)2-(γ-Glu)-CO-(CH2)18-CO2H); Aib20; D-Glu28; C-terminal NH2
Consider B10, for which, in experiment [1], the “hGIPR cAMP EC50 ratio” value is 0.804 and the “hGIPR cAMP Rel EC50” value was 0.182 nM. Also, in experiment [2], the “hGLP1R cAMP EC50 ratio” value is 0.166 and the “hGLP1R cAMP Rel EC50” value came to 0.387 nM.

B11: Example 81 (peptide)
peptide: B5 peptide with S11X, X13L, X22F
modifications: Aib2; D-Ser11; K17((2-[2-(2-Amino-ethoxy)-ethoxy]-acetyl)2-(γ-Glu)-CO-(CH2)18-CO2H); Aib20; C-terminal NH2
As to B11, in experiment [1], the “hGIPR cAMP EC50 ratio” value turned out to be 0.373 and the “hGIPR cAMP Rel EC50” value was found to be 0.428 nM. Also, in experiment [2], the “hGLP1R cAMP EC50 ratio” value turned out to be 0.063 and the “hGLP1R cAMP Rel EC50” value is 1.29 nM.

B12: Example 78 (peptide)
peptide: B5 peptide with Y1X, X13L, X22F
modifications: D-Tyr1; Aib2; K17((2-[2-(2-Amino-ethoxy)-ethoxy]-acetyl)2-(γ-Glu)-CO-(CH2)18-CO2H); Aib20; C-terminal NH2
As to B12, in experiment [1], the “hGIPR cAMP EC50 ratio” value was 0.293 and the “hGIPR cAMP Rel EC50” value is 0.532 nM. Besides, in experiment [2], the “hGLP1R cAMP EC50 ratio” value worked out at 0.143 and the “hGLP1R cAMP Rel EC50” value amounted to 0.544 nM.
